Source: patent US20260209355

T1: L145K mutated biotinylated and Myc tagged human CD28 stalk region dimeric peptide
T1 chain: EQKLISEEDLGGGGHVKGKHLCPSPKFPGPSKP

T2: c-Myc conjugated and biotinylated human CD28 stalk region dimeric peptide (wild-type)
T2 chain: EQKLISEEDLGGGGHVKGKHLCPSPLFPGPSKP

T3: quenched fluorogenic peptide of the human CD28 stalk region (WT)
T3 chain: KGKHLSPSPLFPGPSKPE


Key:
[1] = molecular target: T1, L145K mutated biotinylated and Myc …
[2] = molecular target: T2, c-Myc conjugated and biotinylated human …
[3] = molecular target: T3, quenched fluorogenic peptide of the …
[4] = molecular target: quenched fluorogenic peptide of the human CD28 stalk region with L145K

| Protein | percent of peptide cleaved (intact peptide by anti-Myc ELISA, 25 and 50 ng enzyme, 5 hours) [1] | intact peptide by anti-Myc ELISA (25 and 50 ng enzyme, 5 hours) [2] | fluorescence from cleavage of quenched fluorogenic peptide [3] | fluorescence from cleavage of quenched fluorogenic peptide (2.5 µM peptide, 30 ng enzyme) [3] | fluorescence from cleavage of quenched fluorogenic peptide, titration of protease [3] | fluorescence from cleavage of quenched fluorogenic peptide (2.5 µM peptide, 30 ng enzyme) [4] |
| --- | --- | --- | --- | --- | --- | --- |
| Recombinant human MMP-2 (protein) YNFFPRKPKWDKNQITYRIIGYTPDLDPETVDDAFARAFQVWSDVTPLRFSRIHDGEADIMINFGRWEHGDGYPFDGKDGLLAHAFAPGTGVGGDSHFDDDELWTLGEGQVVRVKYGNADGEYCKFPFLFNGKEYNSCTDTGRSDGFLWCSTTYNFEKDGKYGFCPHEALFTMGGNAEGQPCKFPFRFQGTSYDSCTTEGRTDGYRWCGTTEDYDRDKKYGFCPETAMSTVGGNSEGAPCVFPFTFLGNKYESCTSAGRSDGKMWCATTANYDDDRKWGFCPDQGYSLFLVAAHEFGHAMGLEHSQDPGALMAPIYTYTKNFRLSQDDIKGIQELYGASPDIDLGTGPTPTLGPVTPEICKQDIVFDGIAQIRGEIFFFKDRFIWRTVTPRDKPMGPLLVATFWPELPEKIDAVYEAPQEEKAVFFAGNEYWIYSASTLERGYPKPLTSLGLPPDVQRVDAAFNWSKNKKTYIFAGDKFWRYNEVKKKMDPGFPKLIADAWNAIPDNLDAVVDLQGGGHSYFFKGAYYLKLENQSLKSVKFGSIKSDWLGC | the mutated peptide was not substantially cleaved (<5%) by either MMP-2 or MMP-13 | the WT peptide was cleaved in a dose dependent manner | MMP-2 cleaves the stalk domain peptide | both enzymes efficiently cleaved the WT peptide | the cleavage of the peptide was dose dependent | both were completely incapable of cleaving the mutant peptide |
| Recombinant human ADAM-10 (protein) TTSAEKNTCQLYIQTDHLFFKYYGTREAVIAQISSHVKAIDTIYQTTDFSGIRNISFMVKRIRINTTADEKDPTNPFRFPNIGVEKFLELNSEQNHDDYCLAYVFTDRDFDDGVLGLAWVGAPSGSSGGICEKSKLYSDGKKKSLNTGIITVQNYGSHVPPKVSHITFAHEVGHNFGSPHDSGTECTPGESKNLGQKENGNYIMYARATSGDKLNNNKFSLCSIRNISQVLEKKRNNCFVESGQPICGNGMVEQGEECDCGYSDQCKDECCFDANQPEGRKCKLKPGKQCSPSQGPCCTAQCAFKSKSEKCRDDSDCAREGICNGFTALCPASDPKPNFTDCNRHTQVCINGQCAGSICEKYGLEECTCASSDGKDDKELCHVCCMKKMDPSTCASTGSVQWSRHFSGRTITLQPGSPCNDFRGYCDVFMRCRLVDADGPLARLKKAIFSPELYENIAE |  |  | ADAM-10 and ADAM-17 did not |  |  |  |
